Experimental data as given in patent publication US20150203577A1 (Chugai, published 2015).
Where a chain is given by its changes, count along the chain named.

T1: mouse FcγRIII extracellular domain, C-terminally His-tagged (mouse, UniProt P08508 31-215)
T1 construct: the whole entry is named; also called mFcγRIII; mFcgRIII
T1 chain: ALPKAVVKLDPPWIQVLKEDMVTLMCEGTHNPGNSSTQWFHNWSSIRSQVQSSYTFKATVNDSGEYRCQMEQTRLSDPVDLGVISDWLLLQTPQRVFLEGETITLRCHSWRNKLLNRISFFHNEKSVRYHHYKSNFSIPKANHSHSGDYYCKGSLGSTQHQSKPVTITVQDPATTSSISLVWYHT

T2: mouse FcγRII extracellular domain, C-terminally His-tagged (mouse, UniProt P08101 30-210)
T2 construct: the whole entry is named; also called mFcγRII; mFcgRII
T2 sequence: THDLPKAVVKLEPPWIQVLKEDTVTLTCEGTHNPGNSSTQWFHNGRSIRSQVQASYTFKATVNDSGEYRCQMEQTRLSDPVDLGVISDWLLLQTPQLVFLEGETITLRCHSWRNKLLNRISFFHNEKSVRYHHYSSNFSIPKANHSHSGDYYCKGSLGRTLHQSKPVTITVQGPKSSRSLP

T3: mouse FcγRII extracellular domain with C-terminal His tag (mouse, UniProt P08101 30-210)
T3 construct: Made on the basis of NCBI NP-034317.1; also called mFcγRII; mFcgRII
T3 sequence: T2 sequence

T4: mouse FcγRIII extracellular domain with C-terminal His tag (mouse, UniProt P08508 31-215)
T4 construct: Made on the basis of NCBI NP-034318.2; also called mFcγRIII; mFcgRIII
T4 chain: T1 chain

B1: H237-MB654/MRAL-k0 (antibody, mouse IgG1, kappa)
heavy: QVQLQESGPGLVKPSETLSLTCAVSGHSISHDHAWSWVRQPPGEGLEWIGFISYSGITNYNPSLQGRVTISRDNSKNTLYLQMNSLRAEDTAVYYCARSLARTTAMDYWGEGTLVTVSSAKTTPPSVYPLAPGSAAQTNSMVTLGCLVKGYFPEPVTVTWNSGSLSSGVHTFPAVLQSDLYTLSSSVTVPSSTWPSETVTCNVAHPASSTKVDKKIVPRDCGCKPCICEVYEVEFVFIFPPKPKDVLTITLTPKVTCVVVDISKDDPEVQFSWFVDDVEVHTAQTQPREEQFNSTFRSVSELPIMHQDWLNGKEFKCRVNSAAFPAPIEKTISKTKGRPKAPQVYTIPPPKEQMAKDKVSLTCMITDFFPEDITVEWQWNGQPAENYKNTQPIMDTDGSYFVYSKLNVQKSNWEAGNTFTCSVLHEGLHNHHTEKSLSHSPGK
light: not shown
notes: copies: 2 + 2
B2: H237-MB710/MRAL-k0 (antibody)
heavy: B1 heavy with V230P, Y231A, F235Q
light: not shown
notes: copies: 2 + 2
B3: H237-MB717/MRAL-k0 (antibody, mouse IgG1, kappa)
heavy: B1 heavy with V230P, Y231N, F235P
light: not shown
notes: copies: 2 + 2
B4: H237-MB716/MRAL-k0 (antibody, mouse IgG1, kappa)
heavy: B1 heavy with V230P, Y231N, F235I
light: not shown
notes: copies: 2 + 2
B5: H237-MB714/MRAL-k0 (antibody, mouse IgG1, kappa)
heavy: B1 heavy with V230P, Y231N, F235G
light: not shown
notes: copies: 2 + 2
B6: H237-MB657/MRAL-k0 (antibody, mouse IgG1, kappa)
heavy: B1 heavy with V230P, Y231N
light: not shown
notes: copies: 2 + 2
B7: H237-MB655/MRAL-k0 (antibody, mouse IgG1, kappa)
heavy: B1 heavy with V230P, Y231A
light: not shown
notes: copies: 2 + 2
B8: H237-MB705/MRAL-k0 (antibody, mouse IgG1, kappa)
heavy: B1 heavy with V230P, Y231A, F235G
light: not shown
notes: copies: 2 + 2
B9: H237-MB719/MRAL-k0 (antibody, mouse IgG1, kappa)
heavy: B1 heavy with V230P, Y231N, F235Q
light: not shown
notes: copies: 2 + 2
B10: H237-MB715/MRAL-k0 (antibody, mouse IgG1, kappa)
heavy: B1 heavy with V230P, Y231N, F235V
light: not shown
notes: copies: 2 + 2
B11: H237-MB709/MRAL-k0 (antibody, mouse IgG1, kappa)
heavy: B1 heavy with V230P, Y231A, F235T
light: not shown
notes: copies: 2 + 2
B12: H237-MB718/MRAL-k0 (antibody, mouse IgG1, kappa)
heavy: B1 heavy with V230P, Y231N, F235T
light: not shown
notes: copies: 2 + 2
B13: H237-MB704/MRAL-k0 (antibody, mouse IgG1, kappa)
heavy: B1 heavy with V230P, Y231A, F235A
light: not shown
notes: copies: 2 + 2
B14: H237-MB658/MRAL-k0 (antibody, mouse IgG1, kappa)
heavy: B1 heavy with E229Q, V230P, Y231N
light: not shown
notes: copies: 2 + 2
B15: H237-MB708/MRAL-k0 (antibody, mouse IgG1, kappa)
heavy: B1 heavy with V230P, Y231A, F235P
light: not shown
notes: copies: 2 + 2
B16: H237-MB713/MRAL-k0 (antibody, mouse IgG1, kappa)
heavy: B1 heavy with V230P, Y231N, F235A
light: not shown
notes: copies: 2 + 2
B17: H237-MB793/MRAL-k0 (antibody, mouse IgG1, kappa)
heavy: B1 heavy with E229Q, V230P, Y231N, F235I
light: not shown
notes: copies: 2 + 2
B18: H237-MB487/MRAL-k0 (antibody, mouse IgG1, kappa)
heavy: B1 heavy with E229I, V230P, Y231A, F235S
light: not shown
notes: copies: 2 + 2
B19: H237-MB488/MRAL-k0 (antibody, mouse IgG1, kappa)
heavy: B1 heavy with V230P, Y231N, F235S
light: not shown
notes: copies: 2 + 2
B20: H237-MB471/MRAL-k0 (antibody, mouse IgG1, kappa)
heavy: B1 heavy with V230T, F235E
light: not shown
notes: copies: 2 + 2
B21: H237-MB468/MRAL-k0 (antibody, mouse IgG1, kappa)
heavy: B1 heavy with V230A, F235E
light: not shown
notes: copies: 2 + 2
B22: H237-MB469/MRAL-k0 (antibody, mouse IgG1, kappa)
heavy: B1 heavy with V230D, F235E
light: not shown
notes: copies: 2 + 2
B23: H237-MB472/MRAL-k0 (antibody, mouse IgG1, kappa)
heavy: B1 heavy with F235E
light: not shown
notes: copies: 2 + 2
B24: H237-MB484/MRAL-k0 (antibody, mouse IgG1, kappa)
heavy: B1 heavy with V230T, F235S
light: not shown
notes: copies: 2 + 2
B25: H237-MB482/MRAL-k0 (antibody, mouse IgG1, kappa)
heavy: B1 heavy with V230D, F235S
light: not shown
notes: copies: 2 + 2
B26: H237-MB489/MRAL-k0 (antibody, mouse IgG1, kappa)
heavy: B1 heavy with E229Q, V230P, Y231N, F235S
light: not shown
notes: copies: 2 + 2
B27: H237-MB485/MRAL-k0 (antibody, mouse IgG1, kappa)
heavy: B1 heavy with F235S
light: not shown
notes: copies: 2 + 2
B28: H237-MB470/MRAL-k0 (antibody, mouse IgG1, kappa)
heavy: B1 heavy with V230N, F235E
light: not shown
notes: copies: 2 + 2
B29: H237-MB508/MRAL-k0 (antibody, mouse IgG1, kappa)
heavy: B1 heavy with V230A, F235M
light: not shown
notes: copies: 2 + 2
B30: H237-MB483/MRAL-k0 (antibody, mouse IgG1, kappa)
heavy: B1 heavy with V230N, F235S
light: not shown
notes: copies: 2 + 2
B31: H237-MB481/MRAL-k0 (antibody, mouse IgG1, kappa)
heavy: B1 heavy with V230A, F235S
light: not shown
notes: copies: 2 + 2

Target: T1, mouse FcγRIII extracellular domain, …
Test: SPR Biacore T200, KD ratio
Experimental: (§1) Each altered antibody was analyzed for its interaction with each Fcγ receptor prepared above using Biacore T100 (GE Healthcare Japan Corp.), Biacore T200 (GE Healthcare Japan Corp.), Biacore A100, or Biacore 4000. The running buffer used was HBS-EP+ (GE Healthcare Japan Corp.). The assay temperature was set to 25° C. The sensor chips used were chips prepared by immobilizing Protein L (ACTIGEN or BioVision) onto Series S Sensor Chip CM5 (GE Healthcare Japan Corp.) or Series S Sensor Chip CM4 (GE Healthcare Japan Corp.) by the amine coupling method.
(§2) In order to calculate the KD value of each altered antibody for FcγR, kinetic analysis was conducted according to the following method: first, the antibody of interest was captured onto any of these chips and allowed to interact with mFcγR diluted with a running buffer. For the obtained sensorgram, the assay results were globally fit into the 1:1 Langmuir binding model using Biacore Evaluation Software to calculate an association rate constant ka (L/mol/s) and a dissociation rate constant kd (1/s). From these values, the dissociation constant KD (mol/L) was calculated.

relative mFcγRIII-binding activity (mIgG1 = 1) [fold] | Binder
0.07 | B1
1.22 | B2
0.03 | B3
0.05 | B4
1.61 | B5
0.08 | B6
0.06 | B7
0.75 | B8
2.31 | B9
0.02 | B10
0.04 | B11
0.05 | B12
0.87 | B13
0.06 | B14
0.03 | B15
2.5 | B16
0.05 | B17

target: T2, mouse FcγRII extracellular domain, …; test: SPR Biacore T200, KD ratio
Experimental: as §1, §2

relative mFcγRII-binding activity (mIgG1 = 1) [fold] | Binder
0.27 | B1
50.8 | B2
0.41 | B3
3.98 | B4
14.2 | B5
1.77 | B6
0.4 | B7
8.71 | B8
70.4 | B9
0.89 | B10
0.61 | B11
0.85 | B12
14.1 | B13
0.51 | B14
0.28 | B15
23.5 | B16
1.17 | B17

target: T3, mouse FcγRII extracellular domain with …; test: SPR Biacore T200
Experimental: as §1, §2

relative mFcγRII-binding activity (mIgG1 = 1) | Binder
6.8 | B18
28.7 | B19
91.4 | B20
63.1 | B21
57.1 | B22
39.4 | B23
14.9 | B24
14.1 | B25
6.9 | B26
5 | B27
63.8 | B28
5.5 | B29
9.4 | B30
8.5 | B31

Target: T4, mouse FcγRIII extracellular domain with …
Test: SPR Biacore T200
Experimental: as §1, §2

relative mFcγRIII-binding activity (mIgG1 = 1) | Binder
0.5 | B18
1.8 | B19
4.8 | B20
2.8 | B21
2.8 | B22
2.5 | B23
1.1 | B24
0.7 | B25
1.1 | B26
0.5 | B27
4.9 | B28
0.4 | B29
0.9 | B30
0.6 | B31
